In IntAct's records for PubMed 35512704:

B1: Speckle-type POZ protein (Homo sapiens), O43791 (parent)
chain: MSRVPSPPPPAEMSSGPVAESWCYTQIKVVKFSYMWTINNFSFCREEMGEVIKSSTFSSGANDKLKWCLRVNPKGLDEESKDYLSLYLLLVSCPKSEVRAKFKFSILNAKGEETKAMESQRAYRFVQGKDWGFKKFIRRDFLLDEANGLLPDDKLTLFCEVSVVQDSVNISGQNTMNMVKVPECRLADELGGLWENSRFTDCCLCVAGQEFQAHKAILAARSPVFSAMFEHEMEESKKNRVEINDVEPEVFKEMMCFIYTGKAPNLDKMADDLLAAADKYALERLKVMCEDALCSNLSVENAAEILILADLHSADQLKTQAVDFINYHASDVLETSGWKSMVVSHPHLVAEAYRSLASAQCPFLGPPRKRLKQS
partner: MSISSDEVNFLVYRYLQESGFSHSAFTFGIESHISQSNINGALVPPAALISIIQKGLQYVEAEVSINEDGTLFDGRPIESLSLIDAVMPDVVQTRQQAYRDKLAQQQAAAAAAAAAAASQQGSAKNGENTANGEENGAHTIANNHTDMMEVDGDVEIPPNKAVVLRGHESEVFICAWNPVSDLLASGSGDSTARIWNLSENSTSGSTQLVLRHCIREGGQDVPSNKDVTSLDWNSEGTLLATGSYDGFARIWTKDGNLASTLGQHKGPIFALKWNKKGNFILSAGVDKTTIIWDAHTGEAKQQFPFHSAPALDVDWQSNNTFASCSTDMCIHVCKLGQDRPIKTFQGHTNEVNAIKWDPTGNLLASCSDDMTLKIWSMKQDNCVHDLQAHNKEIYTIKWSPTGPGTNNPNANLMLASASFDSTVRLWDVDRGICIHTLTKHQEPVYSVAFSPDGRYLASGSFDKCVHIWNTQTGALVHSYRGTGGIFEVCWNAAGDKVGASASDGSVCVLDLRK
B2: Speckle-type POZ protein (Homo sapiens), O43791 (parent)
chain: B1 chain
partner: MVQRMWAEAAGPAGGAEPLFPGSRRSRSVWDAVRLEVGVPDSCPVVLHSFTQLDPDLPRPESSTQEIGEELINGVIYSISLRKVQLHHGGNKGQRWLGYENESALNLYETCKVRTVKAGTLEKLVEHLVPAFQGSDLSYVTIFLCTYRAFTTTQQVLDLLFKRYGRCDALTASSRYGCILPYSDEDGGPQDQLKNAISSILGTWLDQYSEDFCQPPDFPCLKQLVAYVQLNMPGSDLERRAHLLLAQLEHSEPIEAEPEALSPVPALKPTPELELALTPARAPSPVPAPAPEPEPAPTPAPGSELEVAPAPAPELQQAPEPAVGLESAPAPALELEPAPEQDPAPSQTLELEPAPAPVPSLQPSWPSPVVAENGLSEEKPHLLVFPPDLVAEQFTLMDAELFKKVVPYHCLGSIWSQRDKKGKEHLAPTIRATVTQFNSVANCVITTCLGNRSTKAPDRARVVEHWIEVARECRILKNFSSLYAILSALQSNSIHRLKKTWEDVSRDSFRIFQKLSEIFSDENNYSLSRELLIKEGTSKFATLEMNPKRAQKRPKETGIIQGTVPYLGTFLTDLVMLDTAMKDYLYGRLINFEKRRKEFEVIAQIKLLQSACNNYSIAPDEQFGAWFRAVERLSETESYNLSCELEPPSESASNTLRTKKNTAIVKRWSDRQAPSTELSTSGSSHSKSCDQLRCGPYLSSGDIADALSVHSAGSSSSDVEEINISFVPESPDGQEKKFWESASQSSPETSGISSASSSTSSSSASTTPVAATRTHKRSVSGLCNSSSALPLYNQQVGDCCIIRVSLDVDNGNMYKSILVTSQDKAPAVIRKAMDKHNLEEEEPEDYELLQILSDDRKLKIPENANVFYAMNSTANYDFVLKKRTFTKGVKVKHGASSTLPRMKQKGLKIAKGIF
B3: Speckle-type POZ protein (Homo sapiens), O43791 (parent)
chain: B1 chain
partner: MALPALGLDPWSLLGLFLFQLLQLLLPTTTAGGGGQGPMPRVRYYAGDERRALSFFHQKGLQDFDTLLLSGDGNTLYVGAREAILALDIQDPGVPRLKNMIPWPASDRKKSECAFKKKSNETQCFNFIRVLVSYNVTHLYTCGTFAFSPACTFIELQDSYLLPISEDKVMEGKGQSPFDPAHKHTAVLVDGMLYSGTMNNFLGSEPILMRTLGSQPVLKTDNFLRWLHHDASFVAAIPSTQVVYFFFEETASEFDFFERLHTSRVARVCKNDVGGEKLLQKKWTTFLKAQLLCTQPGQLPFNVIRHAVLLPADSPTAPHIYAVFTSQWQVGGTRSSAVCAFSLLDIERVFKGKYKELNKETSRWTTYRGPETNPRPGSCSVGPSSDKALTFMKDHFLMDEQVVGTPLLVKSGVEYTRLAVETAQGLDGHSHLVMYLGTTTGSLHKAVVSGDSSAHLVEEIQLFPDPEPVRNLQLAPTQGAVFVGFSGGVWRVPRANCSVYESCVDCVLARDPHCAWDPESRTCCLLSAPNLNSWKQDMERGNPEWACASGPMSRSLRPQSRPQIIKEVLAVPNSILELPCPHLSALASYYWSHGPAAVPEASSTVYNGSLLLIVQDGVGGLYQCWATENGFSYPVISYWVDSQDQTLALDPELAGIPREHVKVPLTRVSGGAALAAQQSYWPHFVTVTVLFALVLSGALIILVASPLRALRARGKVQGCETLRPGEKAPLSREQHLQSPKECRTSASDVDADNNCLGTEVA
B4: Speckle-type POZ protein (Homo sapiens), O43791 (parent)
chain: B1 chain
partner: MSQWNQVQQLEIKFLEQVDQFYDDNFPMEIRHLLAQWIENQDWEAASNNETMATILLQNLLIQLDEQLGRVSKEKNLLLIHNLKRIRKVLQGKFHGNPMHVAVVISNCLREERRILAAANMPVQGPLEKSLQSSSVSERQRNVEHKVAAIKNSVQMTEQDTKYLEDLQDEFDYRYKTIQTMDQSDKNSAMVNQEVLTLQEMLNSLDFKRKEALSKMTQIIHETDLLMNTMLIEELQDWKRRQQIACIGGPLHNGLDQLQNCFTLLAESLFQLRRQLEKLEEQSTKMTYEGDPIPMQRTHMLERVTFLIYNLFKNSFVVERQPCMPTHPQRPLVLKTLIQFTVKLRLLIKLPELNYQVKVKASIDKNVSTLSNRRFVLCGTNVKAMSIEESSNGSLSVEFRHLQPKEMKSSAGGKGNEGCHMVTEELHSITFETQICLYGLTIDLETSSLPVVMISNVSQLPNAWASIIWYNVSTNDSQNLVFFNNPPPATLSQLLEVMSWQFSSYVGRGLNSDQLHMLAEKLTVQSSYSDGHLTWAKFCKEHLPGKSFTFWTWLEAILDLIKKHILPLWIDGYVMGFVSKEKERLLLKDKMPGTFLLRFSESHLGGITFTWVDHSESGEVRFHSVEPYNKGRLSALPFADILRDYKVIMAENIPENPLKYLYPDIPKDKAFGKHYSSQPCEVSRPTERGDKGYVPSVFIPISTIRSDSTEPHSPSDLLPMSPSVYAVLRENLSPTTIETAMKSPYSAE
B5: Speckle-type POZ protein (Homo sapiens), O43791 (parent)
chain: B1 chain
partner: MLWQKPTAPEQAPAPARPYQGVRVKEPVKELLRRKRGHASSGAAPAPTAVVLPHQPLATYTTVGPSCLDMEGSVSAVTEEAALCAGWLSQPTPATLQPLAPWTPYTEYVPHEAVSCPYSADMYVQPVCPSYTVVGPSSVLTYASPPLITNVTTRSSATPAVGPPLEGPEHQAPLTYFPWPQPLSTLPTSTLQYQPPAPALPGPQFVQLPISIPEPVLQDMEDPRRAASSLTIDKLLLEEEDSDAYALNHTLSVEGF
B6: Speckle-type POZ protein (Homo sapiens), O43791 (parent)
chain: B1 chain
partner: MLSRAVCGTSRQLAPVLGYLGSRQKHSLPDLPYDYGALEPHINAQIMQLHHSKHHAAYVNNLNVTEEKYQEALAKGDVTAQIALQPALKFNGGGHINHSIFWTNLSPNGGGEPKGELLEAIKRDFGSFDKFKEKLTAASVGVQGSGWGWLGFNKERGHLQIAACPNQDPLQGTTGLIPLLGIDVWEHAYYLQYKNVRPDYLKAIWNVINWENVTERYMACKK
B7: Speckle-type POZ protein (Homo sapiens), O43791 (parent)
chain: B1 chain
partner: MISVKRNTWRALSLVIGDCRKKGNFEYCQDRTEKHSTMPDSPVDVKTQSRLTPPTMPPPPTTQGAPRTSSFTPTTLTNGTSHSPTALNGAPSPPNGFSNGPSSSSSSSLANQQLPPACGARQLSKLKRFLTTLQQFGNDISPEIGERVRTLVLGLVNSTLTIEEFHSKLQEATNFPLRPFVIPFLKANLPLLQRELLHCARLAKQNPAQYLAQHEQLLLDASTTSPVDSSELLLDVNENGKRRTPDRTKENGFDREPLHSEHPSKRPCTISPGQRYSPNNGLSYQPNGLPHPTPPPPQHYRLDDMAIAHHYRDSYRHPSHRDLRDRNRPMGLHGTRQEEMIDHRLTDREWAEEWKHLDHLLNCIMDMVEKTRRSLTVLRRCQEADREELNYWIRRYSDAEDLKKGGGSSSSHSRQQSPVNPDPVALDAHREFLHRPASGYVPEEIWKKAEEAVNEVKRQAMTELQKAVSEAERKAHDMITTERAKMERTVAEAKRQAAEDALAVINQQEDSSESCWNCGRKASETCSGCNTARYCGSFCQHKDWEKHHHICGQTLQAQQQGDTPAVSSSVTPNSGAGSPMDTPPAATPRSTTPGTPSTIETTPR

Variants of: B1
Conditions: with tbl1r_human TBL1XR1, Q9BZK7

| effect of a mutation on the interaction | Variant |
| --- | --- |
| with no effect | F102C |

Variants of: B2
Conditions: with gnds_human RALGDS

| effect of a mutation on the interaction | Variant |
| --- | --- |
| with no effect | F102C |

Variants of: B2
Conditions: with gnds_human RALGDS
Remark: another data set of the same source

| effect of a mutation on the interaction | Variant |
| --- | --- |
| with no effect | Y87C |

Variants of: B2
Conditions: with gnds_human RALGDS
Remark: another data set of the same source

| effect of a mutation on the interaction | Variant |
| --- | --- |
| with no effect | F133L |

Variants of: B2
Conditions: with gnds_human RALGDS
Remark: another data set of the same source

| effect of a mutation on the interaction | Variant |
| --- | --- |
| with no effect | F133V |

Variants of: B3
Conditions: with sem4a_human SEMA4A

| effect of a mutation on the interaction | Variant |
| --- | --- |
| with no effect | Y87C |

Variants of: B3
Conditions: with sem4a_human SEMA4A
Remark: another data set of the same source

| effect of a mutation on the interaction | Variant |
| --- | --- |
| with no effect | F133V |

Variants of: B3
Conditions: with sem4a_human SEMA4A
Remark: another data set of the same source

| effect of a mutation on the interaction | Variant |
| --- | --- |
| with no effect | F133L |

Variants of: B3
Conditions: with sem4a_human SEMA4A
Remark: another data set of the same source

| effect of a mutation on the interaction | Variant |
| --- | --- |
| with no effect | F102C |

Variants of: B4
Conditions: with stat4_human STAT4, Q14765

| effect of a mutation on the interaction | Variant |
| --- | --- |
| with no effect | F133V |

Variants of: B4
Conditions: with stat4_human STAT4, Q14765
Remark: another data set of the same source

| effect of a mutation on the interaction | Variant |
| --- | --- |
| with no effect | F133L |

Variants of: B4
Conditions: with stat4_human STAT4, Q14765
Remark: another data set of the same source

| effect of a mutation on the interaction | Variant |
| --- | --- |
| with no effect | Y87C |

Variants of: B4
Conditions: with stat4_human STAT4, Q14765
Remark: another data set of the same source

| effect of a mutation on the interaction | Variant |
| --- | --- |
| with no effect | F102C |

Variants of: B5
Conditions: with obf1_human POU2AF1, Q16633

| effect of a mutation on the interaction | Variant |
| --- | --- |
| with no effect | F102C |

Variants of: B5
Conditions: with obf1_human POU2AF1, Q16633
Remark: another data set of the same source

| effect of a mutation on the interaction | Variant |
| --- | --- |
| with no effect | Y87C |

Variants of: B5
Conditions: with obf1_human POU2AF1, Q16633
Remark: another data set of the same source

| effect of a mutation on the interaction | Variant |
| --- | --- |
| with no effect | F133L |

Variants of: B5
Conditions: with obf1_human POU2AF1, Q16633
Remark: another data set of the same source

| effect of a mutation on the interaction | Variant |
| --- | --- |
| with no effect | F133V |

Variants of: B6
Conditions: with sodm_human SOD2, P04179

| effect of a mutation on the interaction | Variant |
| --- | --- |
| with no effect | Y87C |

Variants of: B6
Conditions: with sodm_human SOD2, P04179
Remark: another data set of the same source

| effect of a mutation on the interaction | Variant |
| --- | --- |
| with no effect | F133L |

Variants of: B6
Conditions: with sodm_human SOD2, P04179
Remark: another data set of the same source

| effect of a mutation on the interaction | Variant |
| --- | --- |
| with no effect | F133V |

Variants of: B6
Conditions: with sodm_human SOD2, P04179
Remark: another data set of the same source

| effect of a mutation on the interaction | Variant |
| --- | --- |
| with no effect | F102C |

Variants of: B7
Conditions: with mtg8_human RUNX1T1, Q06455

| effect of a mutation on the interaction | Variant |
| --- | --- |
| with no effect | F133L |

Variants of: B7
Conditions: with mtg8_human RUNX1T1, Q06455
Remark: another data set of the same source

| effect of a mutation on the interaction | Variant |
| --- | --- |
| disrupting interaction strength | F133L |
